For 13 sequences, self-aminoacylation results are on record in the supplement of paper PMC9233669.

The subject of data set [1] is biotinyl-Phe-oxazolone. Nature of the data set: self-aminoacylation, catalytic enhancement (BFO) (fold over background); higher = more active; k-Seq, kA / k0A0; sequences stand for … in GGGAAUGGAUCCACAUCUACGAAUUC…UUCACUGCAGACUUGACGAAGCUG
In outline: (§1)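 Mutagenized RNA pools (0.43 μM; 21-nt variable region) were treated with 2–1250 μM of each biotinyl-aminoacyl-oxazolone. Conditions were 50 μL HEPES/NaCl/KCl/MgCl2/CaCl2 buffer, 5% acetonitrile, pH 6.9–7.0, room temperature, 90 minutes. Catalytic enhancement, the median kA relative to the uncatalyzed rate, was derived from streptavidin capture, qPCR and Illumina sequencing.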

Data set [2] has as its system biotinyl-Ile-oxazolone. Nature of the data set: self-aminoacylation, catalytic enhancement (BIO) (fold over background); higher = more active; k-Seq, kA / k0A0; sequences stand for … in GGGAAUGGAUCCACAUCUACGAAUUC…UUCACUGCAGACUUGACGAAGCUG
In outline:
as §1

Data set [3] deals with biotinyl-Met-oxazolone. The experiment in a line: self-aminoacylation, catalytic enhancement (BMO) (fold over background); higher = more active; k-Seq, kA / k0A0; sequences stand for … in GGGAAUGGAUCCACAUCUACGAAUUC…UUCACUGCAGACUUGACGAAGCUG
In outline:
as §1

The test system of data set [4] is biotinyl-Val-oxazolone. Nature of the data set: self-aminoacylation, catalytic enhancement (BVO) (fold over background); higher = more active; k-Seq, kA / k0A0; sequences stand for … in GGGAAUGGAUCCACAUCUACGAAUUC…UUCACUGCAGACUUGACGAAGCUG
An outline of the steps: as §1

Data set [5] relates to biotinyl-Leu-oxazolone. Nature of the data set: self-aminoacylation, catalytic enhancement (BLO) (fold over background); higher = more active; k-Seq, kA / k0A0; sequences stand for … in GGGAAUGGAUCCACAUCUACGAAUUC…UUCACUGCAGACUUGACGAAGCUG
In outline: as §1

Data set [6] relates to biotinyl-Trp-oxazolone. Nature of the data set: self-aminoacylation, catalytic enhancement (BWO) (fold over background); higher = more active; k-Seq, kA / k0A0; sequences stand for … in GGGAAUGGAUCCACAUCUACGAAUUC…UUCACUGCAGACUUGACGAAGCUG
In outline:
as §1

Fewer inactive variants are shown than the library holds.

Consider “AUUAGCCUGGUCAUCGAGAGA [Fam2.1 aminoacylation ribozyme variant]”, for which the self-aminoacylation in data set [1] came out at 1.49; in data set [2], 1.63; in data set [3], 1.08; in data set [4] it was 1.25; in data set [5] it was 1.43; in data set [6], 1.35.

Turning to “AUUACCCUGGUCAUCCAGGGA [Fam2.1 aminoacylation ribozyme variant]”, the self-aminoacylation in data set [1] was 7.32; in data set [2], 1.91; in data set [3], 2.82; in data set [4], 1.67; in data set [5], 1.84; in data set [6], 2.26.

As to “AUGCACCUAGGUCAUCGGGAG [Fam2.2 aminoacylation ribozyme variant]”, the self-aminoacylation in data set [1] was 1.08; in data set [2], 1.56; in data set [3], 1.39; in data set [4], 1.51; in data set [5] it was 1.54; in data set [6], 1.94.

With “GCACCCUUCAAGCAAUCGGUC [Fam1B.1 aminoacylation ribozyme variant]”, the self-aminoacylation in data set [1] was found to be 4.04; in data set [2], 1.32; in data set [3] it was 1.22; in data set [4], 1.47; in data set [5] it was 1.45; in data set [6], 4.63.

With “AUUCAGCUAGGUCAUCGAGUG [Fam2.2 aminoacylation ribozyme variant]”, the self-aminoacylation in data set [1] was 8.78; in data set [2], 2.01; in data set [3], 2.24; in data set [4], 1.95; in data set [5], 2.86; in data set [6], 1.98.

Consider “AUUCCCCUAGGACAUCGGGUG [Fam2.2 aminoacylation ribozyme variant]”, for which the self-aminoacylation in data set [1] stood at 44.8; in data set [2], 6.12; in data set [3], 7.14; in data set [4] it was 6.82; in data set [5], 9.47; in data set [6], 8.25.

As to “AUUCACCUAGGUGAUCGGGUG [Fam2.2 aminoacylation ribozyme variant]”, the self-aminoacylation in data set [1] came out at 16.6; in data set [2] it was 2.52; in data set [3], 2.81; in data set [4], 2.62; in data set [5] it was 3.27; in data set [6] it was 3.34.

Consider “AGCUUUGCUAAUAGUCGCAAG [Fam3.1 aminoacylation ribozyme variant]”, for which the self-aminoacylation stood at 9.09 in data set [1]; 2.95 in data set [2]; 3.31 in data set [3]; 2.4 in data set [4]; 3.02 in data set [5]; 3.68 in data set [6].

In the case of “AUUACCCUGGAAAUCGAGUGA [Fam2.1 aminoacylation ribozyme variant]”, the self-aminoacylation in data set [1] worked out at 149; in data set [2] it was 8.3; in data set [3], 19.4; in data set [4], 8.39; in data set [5] it was 20.8; in data set [6], 22.6.

On to “AUUACCCUGGUCAGAGAGUGA [Fam2.1 aminoacylation ribozyme variant]”, for which the self-aminoacylation turned out to be 19.9 in data set [1]; 3.18 in data set [2]; 7.04 in data set [3]; 3.41 in data set [4]; 6.71 in data set [5]; 8.25 in data set [6].

For the sequence “AUAUUUGCUAAUAGUCGCAAG [Fam3.1 aminoacylation ribozyme variant]”, the self-aminoacylation in data set [1] was 2.04; in data set [2] it was 1.57; in data set [3], 1.35; in data set [4] it was 1.49; in data set [5], 1.37; in data set [6], 1.75.

As for “AUUCACCUAGGUCAACGGUUG [Fam2.2 aminoacylation ribozyme variant]”, the self-aminoacylation in data set [1] was 1.03; in data set [2], 0.852; in data set [3], 0.808; in data set [4], 0.808; in data set [5], 0.71; in data set [6] it was 0.94.

Turning to “CAACUUCAAACCAUCGGUCUG [Fam1A.1 aminoacylation ribozyme variant]”, the self-aminoacylation in data set [1] is 1.41; in data set [2] it was 1.06; in data set [3], 0.913; in data set [4], 1.1; in data set [5], 1.07; in data set [6], 1.14.
